Measured values: article PMC3278277

Experiments:
Settings in all cases: glycan gained; control: wild type
[1] = GALC blot and activity in H4 conditioned medium
[2] = Anti-V5 blot of Ni-NTA purified C-terminal fragment, COS-1
[3] = Uptake index: recipient lysate activity / input medium activity
[4] = HNG colorimetric assay, stable H4 lysates

B1: galactocerebrosidase (GALC): D528N (protein)
parent chain: MLGKSHGRATHGPLPLADLGIHLPCVKVLHQVTPEEKPAATSRLLVNYPEPYRSQILDYLFKPNFGASLHILKVEIGGDGQTTDGTEPSHMHYALDENYFRGYEWWLMKEAKKRNPNITLIGLPWSFPGWLGKGFDWPYVNLQLTAYYVVTWIVGAKRYHDLDIDYIGIWNERSYNANYIKILRKMLNYQGLQRVKIIASDNLWESISASMLLDAELFKVVDVIGAHYPGTHSAKDAKLTGKKLWSSEDFSTLNSDMGAGCWGRILNQNYINGYMTSTIAWNLVASYYEQLPYGRCGLMTAQEPWSGHYVVESPVWVSAHTTQFTQPGWYYLKTVGHLEKGGSYVALTDGLGNLTIIIETMSHKHSKCIRPFLPYFNVSQQFATFVLKGSFSEIPELQVWYTKLGKTSERFLFKQLDSLWLLDSDGSFTLSLHEDELFTLTTLTTGRKGSYPLPPKSQPFPSTYKDDFNVDYPFFSEAPNFADQTGVFEYFTNIEDPGEHHFTLRQVLNQRPITWAADASNTISIIGDYNWTNLTIKCDVYIETPDTGGVFIAGRVNKGGILIRSARGIFFWIFANGSYRVTGDLAGWIIYALGRVEVTAKKWYTLTLTIKGHFTSGMLNDKSLWTDIPVNFPKNGWAAIGTHSFEFAQFDNFLVEATR
What does the source list for B1?
expression_or_secretion [1]: decreases; other: proteolytic processing [2]: no change; other: cellular uptake, other: uptake index [3]: decreases; enzymatic_activity, percent_of_wt [4]: decreases
